From US20120237518A1 (Kyowa Kirin, published 2012)
Positions count from the first letter of the chain named.

Tests used:
[1] = molecular target: T1, Trop-2/FLAG/Fc, fusion protein of Trop-2 extracellular region, FLAG tag and Fc (human); experiment: Western blot, cAR47A6.4.2 as primary antibody, Trop-2/FLAG/Fc in lane 1, non-reducing and reducing SDS-PAGE [b]
T1 construct: Expressed in HEK293F; The encoding DNA carries a secretion signal
Protocol: (§1) Each protein of Trop-2/FLAG/Fc, Mutant A, Mutant B, or Mutant C prepared in this Example 2 was electrophoresed under reducing condition (treatment of samples in the presence of 10 mmol/l DTT at 95° C. for 5 minutes) or non-reducing condition (treatment of samples in the absence of DTT at room temperature for 10 minutes) by an SDS-PAGE method. The proteins in the gel were transferred to polyvinylidene difluoride (PVDF) membrane at 200 mA for 1 hour using a semi-dry method.
(§2) After the blocking of the PVDF membrane was carried out using PBS containing 5% BSA at room temperature for 1 hour, the PVDF membrane was soaked in the primary antibody solution which was prepared with TBST [an aqueous solution which was prepared by diluting Tris buffered saline (10× concentration) (pH 7.4) manufactured by Nakarai Tesque Inc.) ten-fold and further adding 0.1% concentration of 0.05% polyoxyethylene (20) sorbitan monolaurate (manufactured by Wako Pure Chemical Industries, Ltd., equivalent to ICI Inc.'s trademark Tween 20)] comprising 0.1% BSA to react for 1 hour at room temperature or overnight at 4° C.
(§3) Using the imaging system LAS4000 mini (manufactured by Fujifilm), the luminescence images were obtained. […]

[2] = molecular target: T2, recombinant human Trop-2/Fc/His fusion protein (manufactured by R&D) (human, UniProt P09758 27-274, limits assumed); experiment: competition binding ELISA on immobilised Trop-2/Fc/His; cAR47A6.4.2 varied, competed antibody YY-01 fixed at 0.3 µg/ml [d]
T2 construct: Bought reagent; also called Trop-2/Fc/His chimeric protein; recombinant Trop-2
T2 sequence: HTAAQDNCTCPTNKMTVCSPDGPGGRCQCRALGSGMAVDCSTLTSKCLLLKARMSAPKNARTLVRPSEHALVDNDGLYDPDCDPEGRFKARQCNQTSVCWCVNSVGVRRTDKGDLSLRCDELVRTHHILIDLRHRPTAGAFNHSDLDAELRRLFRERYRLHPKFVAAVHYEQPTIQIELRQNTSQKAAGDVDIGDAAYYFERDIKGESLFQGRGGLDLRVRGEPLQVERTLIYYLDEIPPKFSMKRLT
Protocol: (§4) Into a 96-well ELISA plate (manufactured by Greiner), 2 μg/ml of a recombinant human Trop-2/Fc/His chimeric protein (manufactured by R&D) was dispensed at 50 μl/well, and allowed to stand at 4° C. overnight for immobilization. After washing the plate with PBS, BSA-PBS was added thereto at 100 μl/well and allowed to stand at room temperature for 1 hour for blocking the active groups.
(§5) After washing the plate with Tween-PBS, a peroxidase-labeled rabbit anti-human IgG antibody (manufactured by American Qualex) was added at 50 μl/well as the second antibody and allowed to stand at room temperature for 1 hour. After washing the plate with Tween-PBS, the ABTS [2,2-Azino-bis(3-Ethyl benzothiazol-6-Sulfonic Acid)ammonium)] substrate solution [1 mmol/l ABTS, 0.1 mol/l citric acid buffer (pH 4.2), 0.1% H₂O₂] was added at 50 μl/well for color development, and the chromogenic reaction was stopped by adding a 5% SDS (Sodium lauryl sulfate) solution at 50 μl/well. Thereafter, the value of the absorbance of OD415 nm was measured by a plate reader Emax (manufactured by Molecular Devices, LLC.).

[3] = molecular target: T2, recombinant human Trop-2/Fc/His fusion …; experiment: competition binding ELISA on immobilised Trop-2/Fc/His; cAR47A6.4.2 varied, competed antibody MOv16 fixed at 0.3 µg/ml [b]
Protocol: as §4, §5

[4] = molecular target: T3, Mutant A, Trop-2 extracellular region lacking only domain I, fused to FLAG tag and Fc (human); experiment: Western blot, cAR47A6.4.2 as primary antibody, Mutant A in lane 2, non-reducing and reducing SDS-PAGE [b]
T3 construct: Expressed in HEK293F
T3 sequence (chain, as listed by the source mutant limits assumed): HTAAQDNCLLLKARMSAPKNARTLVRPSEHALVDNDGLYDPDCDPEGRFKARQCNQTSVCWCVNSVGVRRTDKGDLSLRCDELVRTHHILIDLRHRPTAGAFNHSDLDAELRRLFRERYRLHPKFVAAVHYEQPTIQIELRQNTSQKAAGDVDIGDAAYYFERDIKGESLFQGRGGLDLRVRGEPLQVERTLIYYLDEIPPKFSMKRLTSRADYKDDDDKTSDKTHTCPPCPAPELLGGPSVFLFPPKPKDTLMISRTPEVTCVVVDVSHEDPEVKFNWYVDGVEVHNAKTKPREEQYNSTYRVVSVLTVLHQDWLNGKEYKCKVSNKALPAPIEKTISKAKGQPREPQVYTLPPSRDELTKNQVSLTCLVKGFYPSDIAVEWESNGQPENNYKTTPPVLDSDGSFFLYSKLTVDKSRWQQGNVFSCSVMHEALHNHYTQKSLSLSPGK
Protocol: as §1, §2, §3

[5] = molecular target: T4, Mutant B, Trop-2 extracellular region lacking domain I and domain II, fused to FLAG tag and Fc (human); experiment: Western blot, cAR47A6.4.2 as primary antibody, Mutant B in lane 3, non-reducing and reducing SDS-PAGE [b]
T4 construct: Expressed in HEK293F
T4 sequence (chain, as listed by the source mutant limits assumed): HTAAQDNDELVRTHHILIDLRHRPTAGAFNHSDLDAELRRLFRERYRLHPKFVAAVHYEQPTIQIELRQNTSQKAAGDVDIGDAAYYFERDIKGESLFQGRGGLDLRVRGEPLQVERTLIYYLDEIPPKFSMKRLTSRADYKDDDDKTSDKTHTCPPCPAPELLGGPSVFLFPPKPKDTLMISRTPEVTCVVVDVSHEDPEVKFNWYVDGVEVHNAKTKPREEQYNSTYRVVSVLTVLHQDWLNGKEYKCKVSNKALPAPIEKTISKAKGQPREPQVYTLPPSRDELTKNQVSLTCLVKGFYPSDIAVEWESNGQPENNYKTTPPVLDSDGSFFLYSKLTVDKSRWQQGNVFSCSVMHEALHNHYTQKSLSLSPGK
Protocol: as §1, §2, §3

[6] = molecular target: T2, recombinant human Trop-2/Fc/His fusion …; experiment: SPR (Biacore T100), Trop-2/Fc/His captured by Tetra-His antibody, antibody as analyte, Bivalent Analyte model, mean of duplicates
Protocol: (§6) All the operations described below were carried out using Biacore T100 (manufactured by GE Healthcare Bio-sciences). Tetra-His antibody (manufactured by Qiagen) was immobilized so as to be 12,000 RU (resonance unit) on the CM5 sensor chip (manufactured by GE Healthcare Bio-sciences) using Amine Coupling Kit (manufactured by GE Healthcare Bio-sciences). After recombinant Trop-2/Fc/His fusion proteins (manufactured by R&D) were allowed to be captured on the sensor chip, anti-Trop-2 antibodies which were diluted in five-fold steps, starting from a concentration of 5,000 ng/ml were flowed at 30 μL/min, followed by obtaining sensorgrams at each concentration.
(§7) Using the software for analysis accompanied with the equipment, the results were analyzed based on Bivalent Analyte model to obtain the binding rate constant and the dissociation rate constant for binding of each antibody to a recombinant human Trop-2/Fc/His fusion protein.
(1) Binding Activity of Anti-Trop-2 Human Chimeric Antibody to Recombinant Human Trop-2 using Biacore In the same manner described in Example 3, the affinity of KM4591 and cAR47A6.4.2-P to human Trop-2/Fc/His fusion proteins (manufactured by R&D) were measured. ka, kd, and KD (kd/ka) of each antibody are shown in Table 5 (the mean values of duplicate experiments).

[7] = molecular target: T2, recombinant human Trop-2/Fc/His fusion …; experiment: as above; remark: listed apart in the source
Protocol: as §6, §7
(§8) In the same manner described in Example 3(2), the affinity of KM4591 and six kinds of KM4097 humanized antibodies (HV0LV0, HV3aLV0, HV4LV0, HV5LV0, HV10LV2 and HV10LV4) obtained in Example 8 to human Trop-2/Fc/His fusion proteins (manufactured by R&D) were evaluated.

[8] = molecular target: T2, recombinant human Trop-2/Fc/His fusion …; experiment: SPR (Biacore T100) on captured Trop-2/Fc/His; summary sentence of Table 6
Protocol: as §6, §7, §8

[9] = molecular target: T1, Trop-2/FLAG/Fc, fusion protein of …; experiment: Western blot, KM4590 as primary antibody, Trop-2/FLAG/Fc in lane 1, non-reducing and reducing SDS-PAGE [a]
Protocol: as §1, §2, §3

[10] = molecular target: T2, recombinant human Trop-2/Fc/His fusion …; experiment: SPR (Biacore T100), Trop-2/Fc/His captured by Tetra-His antibody on CM5 chip, antibody as analyte, Bivalent Analyte model, mean of duplicates
Protocol: as §6, §7

B1: cAR47A6.4.2, human IgG1 chimeric antibody of anti-Trop-2 mouse monoclonal antibody AR47A6.4.2 (antibody, V domains shown)
VH: QIQLVQSGPELKKPGETVKISCKASGYTFTNYGMNWVKQAPGKGLKWMGWINTKTGEPTYAEEFKGRFAFSLETSASTAYLQINNLKKEDTATYFCGRGGYGSSYWYFDVWGAGTTVTVSS
VL: DIVMTQSHKFMSTSVGDRVSITCKASQDVSIAVAWYQQKPGQSPKVLIYSASYRYTGVPDRFTGSGSGTDFTFTISRVQAEDLAVYYCQQHYITPLTFGAGTKLELK
notes: Variable regions of AR47A6.4.2 with human IgG1 constant region (pKANTEX93), made in CHO/DG44 cells, fucose content 100%
binding result [1]: binds
IC50 (read off the curve) [2]: ~3 µg/mL
IC50 (read off the curve) [3]: ~4 µg/mL
binding result [4]: binds
binding result [5]: binds

B2: cAR47A6.4.2-P, defucosylated human IgG1 chimeric antibody of AR47A6.4.2 (antibody, V domains shown)
VH: B1 VH
VL: B1 VL
modifications: No core fucose on the Fc N-glycan (made in FUT8 knockout CHO/DG44 cells); the letters do not carry this.
Kd [6]: 1.01 nM
koff [6]: 0.000218 s⁻¹
kon [6]: 221000 M⁻¹ s⁻¹

B3: KM4097 humanized antibody HV0LV0 (antibody, V domains shown)
VH: QVQLVQSGAEVKKPGASVKVSCKASGYTFTIYWLGWVRQAPGQGLEWMGNIFPGSAYINYNEKFKGRVTITADTSTSTAYMELSSLRSEDTAVYYCAREGSNSGYWGQGTLVTVSS
VL: DIVMTQSPDSLAVSLGERATINCKSSQSLLNSGNQQNYLAWYQQKPGQPPKLLIYGASTRESGVPDRFSGSGSGTDFTLTISSLQAEDVAVYYCQSDHIYPYTFGQGTKLEIK
notes: Expressed from pKANTEX93 (human constant regions) in FUT8 knockout CHO cells; no fucose attached
Kd [7]: 0.53 nM
koff [7]: 0.00016 s⁻¹
kon [7]: 330000 M⁻¹ s⁻¹
Kd [8]: ≤ 1 nM

B4: KM4097 humanized antibody HV3aLV0 (antibody, V domains shown)
VH: B3 VH with A9P, R67K, Y95F
VL: B3 VL
notes: as for B3
Kd [7]: 0.3 nM
koff [7]: 0.00016 s⁻¹
kon [7]: 506000 M⁻¹ s⁻¹
Kd [8]: ≤ 0.5 nM

B5: KM4097 humanized antibody HV10LV2 (antibody, V domains shown)
VH: B3 VH with A9P, K12V, V20I, R38K, M48I, R67K, V68A, I70L, Y95F, V112L
VL: B3 VL with A19V, L84V
notes: as for B3
Kd [7]: 0.4 nM
koff [7]: 0.000148 s⁻¹
kon [7]: 375000 M⁻¹ s⁻¹
Kd [8]: ≤ 0.5 nM

B6: KM4097 humanized antibody HV5LV0 (antibody, V domains shown)
VH: B3 VH with R38K, M48I, R67K, V68A, Y95F
VL: B3 VL
notes: as for B3
Kd [7]: 0.49 nM
koff [7]: 0.00019 s⁻¹
kon [7]: 383000 M⁻¹ s⁻¹
Kd [8]: ≤ 0.5 nM

B7: KM4097 humanized antibody HV4LV0 (antibody, V domains shown)
VH: B3 VH with A9P, R38K, M48I, Y95F
VL: B3 VL
notes: as for B3
Kd [7]: 0.42 nM
koff [7]: 0.000126 s⁻¹
kon [7]: 335000 M⁻¹ s⁻¹
Kd [8]: ≤ 0.5 nM

B8: anti-Trop-2 human chimeric antibody KM4590 (antibody, human IgG1, V domains shown)
VH: QVQLQQSGPELVRPGTSVRISCKASGYTFTIYWLGWVKQRPGHGLEWIGNIFPGSAYINYNEKFKGKATLTADTSSSTAYMQLSSLTSEDSAVYFCAREGSNSGYWGQGTTLTVSS
VL: DIVMTQSPSSLSVSAGEKVTMTCKSSQSLLNSGNQQNYLAWYQQKPGQPPKLLIYGASTRESGVPDRFTGSGSGTDFTLTINSVQAEDLAVYYCQSDHIYPYTFGGGTKLEIK
notes: KM4097 variable regions joined to human IgG1 H chain constant region and human kappa L chain constant region (pKANTEX93); made in CHO/DG44 cells, fucose content 100%
binding result [9]: binds

B9: anti-Trop-2 mouse monoclonal antibody KM4097 (antibody, V domains shown)
VH: B8 VH
VL: B8 VL
Kd [10]: 0.261 nM
koff [10]: 0.000101 s⁻¹
kon [10]: 389000 M⁻¹ s⁻¹

B10: KM4097 humanized antibody HV10LV4 (antibody, V domains shown)
VH: B3 VH with A9P, K12V, V20I, R38K, M48I, R67K, V68A, I70L, Y95F, V112L
VL: B3 VL with L15A, A19V, I21M, L84V
notes: as for B3
Kd [7]: 0.37 nM
koff [7]: 0.000116 s⁻¹
kon [7]: 342000 M⁻¹ s⁻¹
Kd [8]: ≤ 0.5 nM

B11: anti-Trop-2 human chimeric antibody KM4591 (antibody, human IgG1, V domains shown)
VH: B8 VH
VL: B8 VL
notes: Same polypeptides as KM4590 (human IgG1, kappa), made in FUT8 knockout CHO/DG44 cells, fucose content 0%
Kd [7]: 0.36 nM
koff [7]: 0.000113 s⁻¹
kon [7]: 323000 M⁻¹ s⁻¹
Kd [6]: 0.143 nM
koff [6]: 5.8e-05 s⁻¹
kon [6]: 416000 M⁻¹ s⁻¹
